In FireProtDB (doi:10.1021/bi034721x):
Where “and” joins values, the source holds several entries; their conditions need not be identical. Identical values can stand only once.

Settings: Rattus norvegicus; pH 7.4; Thermal; DSC; sodium phosphate 10 mM; NaCl 0.20 M; whole UniProt chain shown

B1: Parvalbumin alpha wild type, P02625 (protein)
chain: MSMTDLLSAEDIKKAIGAFTAADSFDHKKFFQMVGLKKKSADDVKKVFHILDKDKSGFIEEDELGSILKGFSSDARDLSAKETKTLMAAGDKDGDGKIGVEEFSTLVAES
unfolding enthalpy (calorimetric): 76 kcal/mol and 72 kcal/mol and 52 kcal/mol
